Laboratory results taken from US20090214524A1.

Biological target: Bub3 (UniProt O43684)
Assay: cell-based or functional assay

Chain of UniProt O43684 (O43684 whole entry): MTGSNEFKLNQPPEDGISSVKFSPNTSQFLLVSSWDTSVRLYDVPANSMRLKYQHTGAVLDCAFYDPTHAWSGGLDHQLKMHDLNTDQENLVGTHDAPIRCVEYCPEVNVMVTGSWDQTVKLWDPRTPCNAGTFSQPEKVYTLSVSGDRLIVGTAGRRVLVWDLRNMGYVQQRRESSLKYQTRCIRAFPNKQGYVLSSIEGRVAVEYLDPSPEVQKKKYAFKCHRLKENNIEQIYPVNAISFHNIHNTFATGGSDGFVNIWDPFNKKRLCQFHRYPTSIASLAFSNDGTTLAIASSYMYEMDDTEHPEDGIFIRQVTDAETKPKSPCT

**Q.** “myc-tagged siRNA-resistant wild type BubR1 (pcDNA3-myc-BubR1^ΔsiRNA) (from UniProt O60566 1-1050)” was tested. Which restoration of colcemid-mediated mitotic checkpoint arrest (BrdU incorporation) in T98G cells depleted of endogenous BubR1 did it give?
**A.** 50%
